B1: TM-60: anti-TMEM106B monoclonal antibody; VH SEQ ID NO: 413, VL SEQ ID NO: 502 (antibody, V domains shown)
VH: QVQLQQSGPELVKPGASVKLSCKASGYTFTSYDINWVKQRPGQGLEWIGWIYPRDGNTQYIEKLKGKATLTVDTSSSTAYMELHSLTSEDSAVYFCARWIFYAMDYWGQGTSVTVSS
VL: DVLMTQTPLSLPVSLGDQASISCRSSQSIVHGNGNTYLEWYLQKPGQSPKLLIYKVSNRFSGVPDRFSGSGSGTDFTLKISRVEAEDLGVYYCFQGSHLPYTFGGGTKLEIK
modifications: Variable Heavy Chain -- TM-48, TM-60; Variable Light Chain -- TM-60
B2: TM-12: anti-TMEM106B monoclonal antibody; CDR-H1-3 SEQ ID NO: 13, 46, 89; CDR-L1-3 SEQ ID NO: 130, 169, 194 (antibody, V domains shown)
VH: EVQLQQSGAELMRPGASVKLSCTASGFNIQDYYMYWVKQRPEQGLEWIGRIDPEDGDAEYAPKFQGKATMTADTSSNTAYLQLSSLTSEDTAVYYCSTRVIYDGYYRTMDCWGQGTSVTVSS
VL: DVLMTQIPLSLPVSLGDQASISCRSSQTIVHSNGNTYLEWYLKKPGQSPKLLIDKISNRFSGVPDRFSGSGSGTDFTLKISRVEAEDLGVYYCFQGSHVPYTFGGGTKLEIK
B3: TM-19: anti-TMEM106B monoclonal antibody; CDR-H1-3 SEQ ID NO: 13, 53, 96; CDR-L1-3 SEQ ID NO: 136, 175, 200 (antibody, V domains shown)
VH: DVQLQQSGAELVRPGASVKLSCTASGFNIKDYYMYWVKQRPEQGLEWIGRIDPEDGDTENAPKFRGMATMTADTSSNTAYLQLNSLTSEDTAVYYCTTRIGNLYHVMDYWGHGTSVTVSS
VL: DVLMTQTPLSLPVSLGDQASISCRSSQSIVHSNGNTYLEWYLQKPGQAPKLLIDKVFNRFSGVPDRFSGSGSGTDFTLKISRVEAEDLGVYYCFQGSHVPFTFGSGTKLEIK
B4: TM-76: anti-TMEM106B monoclonal antibody; VH SEQ ID NO: 481, VL SEQ ID NO: 516 (antibody, V domains shown)
VH: QVTLKESGPGILQPSQTLSLTCSFSGFSLSTSGMGVSWIRKPSGKGLEWLAHIFWDDDKRYNLFLKSRLTVSKDTSSNQVFLMITSVDTTDTATYYCARMGRQRDYFDYWGQGTSLTVSS
VL: QIILTQSPAIMSASLGEEITLTCSASLSISYVHWYQQKSGASPKLLIYGTSNLASGVPSRFSGSGSGTFYSLTISSVEAEDAADYYCHQWSIYRTFGGGTKLEMK
modifications: Variable Heavy Chain -- TM-76; Variable Light Chain -- TM-76
B5: TM-9: anti-TMEM106B monoclonal antibody; CDR-H1-3 SEQ ID NO: 10, 43, 86; CDR-L1-3 SEQ ID NO: 122, 168, 186 (antibody, V domains shown)
VH: EVQLVESGGDLVKPGGSLKLSCVASGFTFSGYGMSWVRQTPDKRLEWVATISSGSFYIYYPDSVKGRLTVSRDNAKNTLYLQMSSLKSEDTAIYYCARQNFYYGCEDYWGQGTTLTVSS
VL: DIVMTQAAFSNPVTLGTSASISCRSSKSLLHSNGITYLYWYLQKPGQSPQLLIYQMSNLASGVPNRFSSSGSGTDFTLRISRVEAEDVGVYYCAQNLELPWTFGGGTKLEIK
B6: TM-21: anti-TMEM106B monoclonal antibody; CDR-H1-3 SEQ ID NO: 18, 54, 97; CDR-L1-3 SEQ ID NO: 137, 168, 201 (antibody, V domains shown)
VH: EVQLVESGGGLVKPGGSLKLSCAASGFTFSNYAMSWVRETPEKRLEWVAFISDGGGYIYYADNVKDRFTISRDNAKNNLYLQMRHLKSEDTAMYYCARDGGTGFTYWGQGTLVTVSV
VL: DIVMTQAAFSNPVTLGTSASISCRSSKSLLHSNGITYLFWYLQKPGQSPQLLIYQMSNLASGVPDRFSSSGSGTDFTLRISRVEAEDVGVYYCVQNLELPYTFGGGTKLEIK
B7: TM-61: anti-TMEM106B monoclonal antibody; VH SEQ ID NO: 467, VL SEQ ID NO: 503 (antibody, V domains shown)
VH: QVQLQQSGAELAKPGASVKLSCKASGYTFTNYWMNWVKQRPGQGLEWIGYINPSSDYTKYNQNFKDKATLTADKSSSTAYMQLNSLTYEDSAVYYCTRWGGSRSYWYFDVWGAGTTVTVSS
VL: DIVMTQSPSSLSASAGEKVTMSCKSSQSLLNSGNQKNYLAWYQQKPGQSPKLLIYGASTRESGVPDRFTGSGSGTDFTLTISSVQAEDLAVYYCQNDSNYPFTFGGGTKLEMK
modifications: Variable Heavy Chain -- TM-61; Variable Light Chain -- TM-61
B8: TM-7: anti-TMEM106B monoclonal antibody; CDR-H1-3 SEQ ID NO: 8, 41, 84; CDR-L1-3 SEQ ID NO: 126, 166, 190 (antibody, V domains shown)
VH: EVQLQQSGPVLVKPGPPVKISCKASGFTFTDYYIHWVKLSHGKSLEWIGLVYPYNGDTDYNQKFKGKATLTVDTSSSTAYMELNSLTSEDSAVYYCARTYYANSPDYWGQGTTVTVSS
VL: DIVMTQSPSSLSVSAGEKVTMSCKSSQSLLNSGNQRNYLAWYQQKPGQPPKLLIYGASTRESGVPDRFTGSGSGTDFTLTISNVQAEDLAVYYCQNDHSYPLTFGAGTKLELK
B9: TM-11: anti-TMEM106B monoclonal antibody; CDR-H1-3 SEQ ID NO: 12, 45, 88; CDR-L1-3 SEQ ID NO: 129, 170, 193 (antibody, V domains shown)
VH: QVQLKQSGPGQVQPSQSLSITCTVSGFSLSDYGVHWVRQSPGKGLEWLGVIWNNGNTDYNAAFISRLSINKDNSKSQVFFKMTSLQADDTAIYYCVRSLRPLHFDYWGQGTTVTVSS
VL: DIVMTQSPSSLTMSVGQKVTMHCKSSQSLLNSNNLQNYLAWYQQKPGQSPTLLVYFASIRESGVPDRFIGSGSGTDFTLTISSVQAEDLADYFCQQHYNTPFTFGSGTKLEIR
B10: TM-18: anti-TMEM106B monoclonal antibody; CDR-H1-3 SEQ ID NO: 5, 52, 95; CDR-L1-3 SEQ ID NO: 135, 174, 199 (antibody, V domains shown)
VH: EVRLQQSGPELVKPGASVKISCKTSGYTFTDYYMNWVKQSHGKSLEWIVNINPNNGDAFYNQKFKGKATLTVDKSSNTAYLDLRSLTSEDSAVYYCAREGQLRLRRVYAMDYWGQGTSVTVSS
VL: DIVLAQSPASLAVSLGQRATISCRASKSVSISVYTYVHWYQQKPGQPPKLLIYLASNLESGVPARFSGSGSGTDFTLNIHPVEEEDAATYYCQHSRELPYTFGGGTKLEIK
B11: TM-13: anti-TMEM106B monoclonal antibody; CDR-H1-3 SEQ ID NO: 14, 47, 90; CDR-L1-3 SEQ ID NO: 131, 171, 195 (antibody, V domains shown)
VH: QVQLQQSGAELVKPGASVKMSCKASGYTFTTFPIEWMKQSHGKGLEWIGNFHPYNDDTKYNEKFKGKATLTVDKSSSTVYLDLSRLTSDDSAVYYCARYFYGGMDYWGQGTSVTVSS
VL: DIQMTQSPASLSVSVGETVTITCRASENIYSSLGWYQQKQGESPQLLVFAATNLADGVPSRFSGSGSGTQYSLKINSLQSEDFGTYYCQHLWSIPWTFGGGTRLEIK
B12: TM-10: anti-TMEM106B monoclonal antibody; CDR-H1-3 SEQ ID NO: 11, 44, 87; CDR-L1-3 SEQ ID NO: 128, 169, 192 (antibody, V domains shown)
VH: QVQLQQSGAELVKPGASVKISCKGSGYAFSSYWMNWVKQRPGKGLEWIGQIYPGDGDTNYNGKFKGKATLTADKSSTTAYIHLSSLTSEDSAVYFCARWGHYDEAMDDWGQGTSVTVSS
VL: DVVMTQTPLSLPVSLGDQASISCRSSQSLVHSNGKTYLHWYVQKPGQSPKLLIYKISNRFSGVPDRFSGSGSGTDFTLKISRVEAEDLGVYFCSQITHVPWTFGGGTKLESK

Target: GST-TMEM106B (truncated, comprising amino acids 122-210 of SEQ ID NO:1) (Homo sapiens, UniProt Q9NUM4)
Sequence (Q9NUM4 122-210): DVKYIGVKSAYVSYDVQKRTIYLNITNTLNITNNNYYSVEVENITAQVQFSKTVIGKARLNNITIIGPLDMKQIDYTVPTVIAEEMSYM
Assay: Pre-mix epitope binning of anti-TMEM106B antibodies (Carterra / Lake Pharma)
Type: binding
Design: key to epitope bin: Bin 1: competes for binding to the same or overlapping TMEM106B region as the TM1, TM17, TM22, TM26, TM79, and/or TM82 antibodies; Bin 2: competes for binding to the same or overlapping TMEM106B region as the TM3, TM9, TM10, TM11, TM12, TM13, TM18, TM19, TM21, TM24, TM25, TM32, TM35, TM37, TM42, TM45, TM48, TM54, TM59, TM60, TM61, and/or TM76 antibodies; Bin 3: competes for binding to the same or overlapping TMEM106B region as the TM7, TM15, TM83, and/or TM84 antibodies; Bin 4: competes for binding to the same or overlapping TMEM106B region as the TMS, TM28, TM29, TM30, TM63, TM64, TM72, TM78, TM80, TM86, and/or TM88 antibodies; Bin 5: does not bind to a truncated TMEM106B comprising amino acids 122-210 of SEQ ID NO:1
Conditions: for epitope bin: competition for binding to truncated GST-TMEM106B (amino acids 122-210); for Binding Community/Bin: epitope bin number, pre-mix binning on truncated GST-TMEM106B
Protocol: (§1) Monoclonal anti-TMEM106B antibodies were immobilized to a CMD 50M chip (Xantec # SPMXCMD5OM lot# SCCMD50M0416). The running buffer was HBS-EP+ with 1 mg/mL BSA. The GST-TMEM106B (truncated, comprising amino acids 122-210 of SEQ ID NO:1) antigen was prepared at a final concentration of 55 nM (corresponding to 2 μg/mL) and mixed with the competing analyte anti-TMEM106B antibodies at a final concentration of 333 nM (corresponding to 50 μg/mL) or compared to a buffer control. Samples were injected for 5 minutes over the array and regenerated after every cycle with 1 minute of two parts Pierce IgG-Elution buffer (ThermoFisher Cat#21004) and 1 part of 10 mM Glycine, pH 2.0 (Carterra).
Anti-TMEM106B antibodies sorted into various competing bins and resulting binning profiles. […] Antibodies within Bin 3 or Bin 4 partially block Bin 2 antibodies.
as §1, with “SPMXCMD50M” for “SPMXCMD5OM”, “lmg/ml” for “1 mg/mL”, “(truncated)” for “(truncated, comprising amino acids 122-210 of SEQ ID NO:1)”, “μg/ml)” for “μg/mL)”

Molecule	epitope bin	Binding Community/Bin
B1	Bin 2	2
B2	Bin 2	2
B3	Bin 2	2
B4	Bin 2	2
B5	Bin 2	2
B6	Bin 2	2
B7	Bin 2	2
B8	Bin 3	3
B9	Bin 2	2
B10	Bin 2	2
B11	Bin 2	2
B12	Bin 2	2

— patent US20240166738A1 (priority 2021, published 2024)
